Results on 76 sequences are retold here after the supplement of paper PMC7877785.

This series is described as follows: self-splicing fitness, log relative to wild type (ln ratio); higher = more splicing; Tetrahymena group I intron in knt gene, E. coli kanamycin selection, DiMSum; sequences stand for … in CUCUCU…GGAGGGAAAAGUUAUCAGGCAUGCACCUGGUAGCUAGUCUUUAAACCAAUAGAUUGCAUCGGUUUAAAAGGCAAGACCGUCAAAUUGCGGGAAAGGGGUCAACAGCCGUUCAGUACCAAGUCUCAGGGGAAACUUUGAGAUGGCCUUGCAAAGGGUAUGGUAAUAAGCUGACGGACAUGGUCCUAACCACGCAGCCAAGUCCUAAGUCAACAGAUCUUCUGUUGAUAUGGAUGCAGUUCACAGACUAAAUGUCGGUCGGGGAAGAUGUAUUCUUCUCAUAAGAUAUAGUCGGACCUCUCCUUAAUGGGAGCUAGCGGAUGAAGUGAUGCAACACUGGAGCCGCUGGGAACUAAUUUGUAUGCGAAAGUAUAUUGAUUAGUUUUGGAGUACUCGUGGUCG
A digest of the protocol:
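Fitness was computed with DiMSum as the error-weighted combination of replicate fold changes, kanamycin versus none, each normalised to wild type. The library randomised all eight intron nucleotides of the P1ex region, with the intron placed in the knt kanamycin-resistance gene on pET-22b(+) in E. coli BL21(DE3). Six replicate transformations were grown overnight at 37°C or 30°C on LB agar with or without 25 μg/mL kanamycin, plus 100 μg/mL carbenicillin, 50 μM IPTG and 0.2% rhamnose. Pooled colonies were amplicon-sequenced on an Illumina HiSeq 2500.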

± gives the uncertainty stated by the source.

With ACGAAGCAAUAUUACGAACG, the “self-splicing fitness (ln)” value is, setting by setting: (30 °C) -1.3 ± 0.091; (37 °C) -0.288 ± 0.11.
Regarding ACGAAGCAAUAUUACGAACU, the “self-splicing fitness (ln)” value is -0.572 ± 0.084 (30 °C) and -0.697 ± 0.093 (37 °C).
Regarding ACGAAGCAAUAUUACGAGGG, the “self-splicing fitness (ln)” value reads like this: (30 °C) -3.54 ± 0.17; (37 °C) -3.26 ± 0.3.
On the same counts, the results for ACGAAGCAAUAUUACGAUUG are -2.46 ± 0.14 and -0.909 ± 0.15.
On the same counts, the results for ACGAAGCAAUAUUACGCACC are -0.755 ± 0.16 and -0.0218 ± 0.22.
On the same counts, the results for ACGAAGCAAUAUUACGCAGU are -3.29 ± 0.17 and -2.5 ± 0.2.
As to ACGAAGCAAUAUUACGCCCU, the “self-splicing fitness (ln)” value (30 °C) is -0.468 ± 0.1 and the “self-splicing fitness (ln)” value (37 °C) was 0.19 ± 0.12.
In the case of ACGAAGCAAUAUUACGCCUA, the “self-splicing fitness (ln)” value reads like this: (30 °C) -1.93 ± 0.15; (37 °C) -1.1 ± 0.12.
On the same counts, the results for ACGAAGCAAUAUUACGCGAA are -2.07 ± 0.1 and -0.608 ± 0.097.
For ACGAAGCAAUAUUACGCUUA, the “self-splicing fitness (ln)” value is, setting by setting: (30 °C) -1.81 ± 0.087; (37 °C) -0.374 ± 0.083.
The like results for ACGAAGCAAUAUUACGCUUG were, in that order, -1.4 ± 0.086 and -0.259 ± 0.098.
On to ACGAAGCAAUAUUACGGACC, for which the “self-splicing fitness (ln)” value reads like this: (30 °C) -0.399 ± 0.17; (37 °C) -0.661 ± 0.26.
Turning to ACGAAGCAAUAUUACGGAGG, the “self-splicing fitness (ln)” value (30 °C) is -2.97 ± 0.16 and the “self-splicing fitness (ln)” value (37 °C) was -1.69 ± 0.14.
The like results for ACGAAGCAAUAUUACGGAUC were, in that order, -3.59 ± 0.12 and -1.47 ± 0.096.
As to ACGAAGCAAUAUUACGGCCC, the “self-splicing fitness (ln)” value (30 °C) is -1.25 ± 0.2 and the “self-splicing fitness (ln)” value (37 °C) was determined as 0.0496 ± 0.26.
As for ACGAAGCAAUAUUACGGGUA, the “self-splicing fitness (ln)” value reads like this: (30 °C) -1.72 ± 0.25; (37 °C) -2.08 ± 0.17.
Turning to ACGAAGCAAUAUUACGGGUC, the “self-splicing fitness (ln)” value was -4.49 ± 0.29 (30 °C) and -2.34 ± 0.23 (37 °C).
On the same counts, the results for ACGAAGCAAUAUUACGUGGU are -3.5 ± 0.16 and -2.95 ± 0.15.
On the same counts, the results for ACGAAGCAAUAUUACGUUAU are -3.54 ± 0.13 and -1.1 ± 0.1.
On the same counts, the results for ACGCAGCAAUAUUACGAAAU are -2.55 ± 0.13 and -1.7 ± 0.15.
Take ACGCAGCAAUAUUACGAACU: the “self-splicing fitness (ln)” value reads like this: (30 °C) -0.619 ± 0.062; (37 °C) -0.501 ± 0.081.
In the case of ACGCAGCAAUAUUACGAAUA, where the note is “37 °C”, the “self-splicing fitness (ln)” value was -2.19 ± 0.23.
Consider ACGCAGCAAUAUUACGACGA, for which the “self-splicing fitness (ln)” value reads like this: (30 °C) -0.25 ± 0.1; (37 °C) 0.113 ± 0.12.
In the case of ACGCAGCAAUAUUACGACGC, the “self-splicing fitness (ln)” value reads like this: (30 °C) 0.036 ± 0.062; (37 °C) 0.169 ± 0.082.
On the same counts, the results for ACGCAGCAAUAUUACGACGG are -0.871 ± 0.051 and -0.191 ± 0.073.
As for ACGCAGCAAUAUUACGACGU, the “self-splicing fitness (ln)” value reads like this: (30 °C) -3.11 ± 0.1; (37 °C) -0.828 ± 0.097.
Regarding ACGCAGCAAUAUUACGAGAG, the “self-splicing fitness (ln)” value by setting is: (30 °C) -3.3 ± 0.11; (37 °C) -1.78 ± 0.1.
For the sequence ACGCAGCAAUAUUACGAGCG, the “self-splicing fitness (ln)” value is -1.54 ± 0.083 (30 °C) and -0.23 ± 0.1 (37 °C).
The like results for ACGCAGCAAUAUUACGAGGA were, in that order, -2.8 ± 0.16 and -2.26 ± 0.17.
For the sequence ACGCAGCAAUAUUACGAUCC, the “self-splicing fitness (ln)” value is, setting by setting: (30 °C) -2.24 ± 0.15; (37 °C) -1.09 ± 0.17.
In the case of ACGCAGCAAUAUUACGAUCG, the “self-splicing fitness (ln)” value is -0.15 ± 0.049 (30 °C) and 0.252 ± 0.071 (37 °C).
On the same counts, the results for ACGCAGCAAUAUUACGAUGC are -3.44 ± 0.27 and -1.56 ± 0.21.
For the sequence ACGCAGCAAUAUUACGCAAU, the “self-splicing fitness (ln)” value was -1.76 ± 0.11 (30 °C) and -1.85 ± 0.15 (37 °C).
On to ACGCAGCAAUAUUACGCCAG, for which the “self-splicing fitness (ln)” value (30 °C) was -2.82 ± 0.22 and the “self-splicing fitness (ln)” value (37 °C) was -2.07 ± 0.28.
With ACGCAGCAAUAUUACGCCGU, the “self-splicing fitness (ln)” value (30 °C) was -3.33 ± 0.2 and the “self-splicing fitness (ln)” value (37 °C) is -2.74 ± 0.27.
Consider ACGCAGCAAUAUUACGCUCC, for which the “self-splicing fitness (ln)” value (37 °C) was -0.96 ± 0.18.
Regarding ACGCAGCAAUAUUACGGAAA, the “self-splicing fitness (ln)” value was -2.7 ± 0.33 (30 °C) and -0.506 ± 0.21 (37 °C).
Consider ACGCAGCAAUAUUACGGACC, for which the “self-splicing fitness (ln)” value (30 °C) is -1.95 ± 0.15 and the “self-splicing fitness (ln)” value (37 °C) was determined as 0.559 ± 0.18.
In the case of ACGCAGCAAUAUUACGGAUC, the “self-splicing fitness (ln)” value was -1.86 ± 0.093 (30 °C) and -0.813 ± 0.13 (37 °C).
In the case of ACGCAGCAAUAUUACGGCAA, the “self-splicing fitness (ln)” value (30 °C) is -0.804 ± 0.078 and the “self-splicing fitness (ln)” value (37 °C) was -0.421 ± 0.084.
ACGCAGCAAUAUUACGGCAC: the “self-splicing fitness (ln)” value by setting is: (30 °C) -0.763 ± 0.077; (37 °C) -0.602 ± 0.11.
The like results for ACGCAGCAAUAUUACGGCUC were, in that order, -0.489 ± 0.055 and -0.0273 ± 0.082.
Turning to ACGCAGCAAUAUUACGGGCC, the “self-splicing fitness (ln)” value reads like this: (30 °C) -1.28 ± 0.091; (37 °C) -0.893 ± 0.12.
On the same counts, the results for ACGCAGCAAUAUUACGUCCA are -1.28 ± 0.11 and -1.13 ± 0.1.
Take ACGGAGCAAUAUUACGAAAG: where the note is “30 °C”, the “self-splicing fitness (ln)” value was -3.06 ± 0.31.
In the case of ACGGAGCAAUAUUACGAGUA, the “self-splicing fitness (ln)” value runs as follows: (30 °C) -2.03 ± 0.41; (37 °C) -1.94 ± 0.33.
The like results for ACGGAGCAAUAUUACGAUCA were, in that order, -2.77 ± 0.37 and -1.53 ± 0.24.
On to ACGGAGCAAUAUUACGAUUA, for which the “self-splicing fitness (ln)” value (30 °C) was -2.6 ± 0.25 and the “self-splicing fitness (ln)” value (37 °C) is -2.23 ± 0.29.
With ACGGAGCAAUAUUACGCAAA, the “self-splicing fitness (ln)” value is -2.73 ± 0.25 (30 °C) and -1.58 ± 0.22 (37 °C).
On the same counts, the results for ACGGAGCAAUAUUACGCACU are -3.4 ± 0.34 and -1.32 ± 0.23.
Consider ACGGAGCAAUAUUACGCGAU, for which the “self-splicing fitness (ln)” value (37 °C) was -1.2 ± 0.17.
As to ACGGAGCAAUAUUACGCGGA, the “self-splicing fitness (ln)” value runs as follows: (30 °C) -3.41 ± 0.37; (37 °C) -1.54 ± 0.26.
In the case of ACGGAGCAAUAUUACGCGUA, the “self-splicing fitness (ln)” value (30 °C) is -2.62 ± 0.12 and the “self-splicing fitness (ln)” value (37 °C) was -1.32 ± 0.11.
The like results for ACGGAGCAAUAUUACGGAAC were, in that order, -3.05 ± 0.27 and -3.62 ± 0.47.
ACGGAGCAAUAUUACGGACU: the “self-splicing fitness (ln)” value reads like this: (30 °C) -2.21 ± 0.15; (37 °C) -1.84 ± 0.16.
The like results for ACGGAGCAAUAUUACGGCGA were, in that order, -2.01 ± 0.13 and -1.83 ± 0.15.
With ACGGAGCAAUAUUACGGGAG, the “self-splicing fitness (ln)” value runs as follows: (30 °C) -3.09 ± 0.37; (37 °C) -1.65 ± 0.24.
With ACGGAGCAAUAUUACGGUAU, the “self-splicing fitness (ln)” value is -4.48 ± 0.25 (30 °C) and -2.58 ± 0.2 (37 °C).
Regarding ACGGAGCAAUAUUACGGUCU, the “self-splicing fitness (ln)” value reads like this: (30 °C) -3.07 ± 0.21; (37 °C) -2.44 ± 0.26.
On to ACGGAGCAAUAUUACGGUUU, for which the “self-splicing fitness (ln)” value was -3.1 ± 0.15 (30 °C) and -3.31 ± 0.28 (37 °C).
The like results for ACGGAGCAAUAUUACGUAUG were, in that order, -3.6 ± 0.2 and -2.81 ± 0.32.
With ACGGAGCAAUAUUACGUCUU, the “self-splicing fitness (ln)” value is -2.7 ± 0.35 (30 °C) and -2.06 ± 0.5 (37 °C).
Take ACGGAGCAAUAUUACGUGAU: the “self-splicing fitness (ln)” value reads like this: (30 °C) -3.47 ± 0.19; (37 °C) -1.32 ± 0.2.
As for ACGUAGCAAUAUUACGAACG, the “self-splicing fitness (ln)” value by setting is: (30 °C) -1 ± 0.082; (37 °C) -0.927 ± 0.12.
On the same counts, the results for ACGUAGCAAUAUUACGAAUG are -2.89 ± 0.13 and -1.53 ± 0.12.
Turning to ACGUAGCAAUAUUACGACAA, the “self-splicing fitness (ln)” value runs as follows: (30 °C) -0.894 ± 0.071; (37 °C) -0.495 ± 0.084.
As for ACGUAGCAAUAUUACGACAU, the “self-splicing fitness (ln)” value (30 °C) was -0.126 ± 0.012 and the “self-splicing fitness (ln)” value (37 °C) is 0.0543 ± 0.032.
As to ACGUAGCAAUAUUACGACUA, the “self-splicing fitness (ln)” value by setting is: (30 °C) -0.558 ± 0.15; (37 °C) 0.529 ± 0.18.
The like results for ACGUAGCAAUAUUACGAGCA were, in that order, -0.664 ± 0.2 and -1.82 ± 0.19.
The like results for ACGUAGCAAUAUUACGAGUG were, in that order, -2.54 ± 0.2 and -1.43 ± 0.15.
For ACGUAGCAAUAUUACGAUGC, the “self-splicing fitness (ln)” value by setting is: (30 °C) -3.24 ± 0.22; (37 °C) -1.51 ± 0.22.
Regarding ACGUAGCAAUAUUACGAUUA, the “self-splicing fitness (ln)” value was -0.625 ± 0.12 (30 °C) and -0.514 ± 0.11 (37 °C).
The like results for ACGUAGCAAUAUUACGCCAU were, in that order, -3.02 ± 0.19 and -2.55 ± 0.24.
The like results for ACGUAGCAAUAUUACGCCGA were, in that order, -1.34 ± 0.23 and -0.566 ± 0.18.
With ACGUAGCAAUAUUACGCCGG, the “self-splicing fitness (ln)” value reads like this: (30 °C) -1.28 ± 0.11; (37 °C) -0.915 ± 0.17.
Take ACGUAGCAAUAUUACGCGGC: the “self-splicing fitness (ln)” value runs as follows: (30 °C) -3.01 ± 0.22; (37 °C) -2.47 ± 0.42.
